Key:
[1] = biological target: T1, Latrophilin-3 ADHD-related variant A247S (Lphn3^A247S) (human)
T1 chain: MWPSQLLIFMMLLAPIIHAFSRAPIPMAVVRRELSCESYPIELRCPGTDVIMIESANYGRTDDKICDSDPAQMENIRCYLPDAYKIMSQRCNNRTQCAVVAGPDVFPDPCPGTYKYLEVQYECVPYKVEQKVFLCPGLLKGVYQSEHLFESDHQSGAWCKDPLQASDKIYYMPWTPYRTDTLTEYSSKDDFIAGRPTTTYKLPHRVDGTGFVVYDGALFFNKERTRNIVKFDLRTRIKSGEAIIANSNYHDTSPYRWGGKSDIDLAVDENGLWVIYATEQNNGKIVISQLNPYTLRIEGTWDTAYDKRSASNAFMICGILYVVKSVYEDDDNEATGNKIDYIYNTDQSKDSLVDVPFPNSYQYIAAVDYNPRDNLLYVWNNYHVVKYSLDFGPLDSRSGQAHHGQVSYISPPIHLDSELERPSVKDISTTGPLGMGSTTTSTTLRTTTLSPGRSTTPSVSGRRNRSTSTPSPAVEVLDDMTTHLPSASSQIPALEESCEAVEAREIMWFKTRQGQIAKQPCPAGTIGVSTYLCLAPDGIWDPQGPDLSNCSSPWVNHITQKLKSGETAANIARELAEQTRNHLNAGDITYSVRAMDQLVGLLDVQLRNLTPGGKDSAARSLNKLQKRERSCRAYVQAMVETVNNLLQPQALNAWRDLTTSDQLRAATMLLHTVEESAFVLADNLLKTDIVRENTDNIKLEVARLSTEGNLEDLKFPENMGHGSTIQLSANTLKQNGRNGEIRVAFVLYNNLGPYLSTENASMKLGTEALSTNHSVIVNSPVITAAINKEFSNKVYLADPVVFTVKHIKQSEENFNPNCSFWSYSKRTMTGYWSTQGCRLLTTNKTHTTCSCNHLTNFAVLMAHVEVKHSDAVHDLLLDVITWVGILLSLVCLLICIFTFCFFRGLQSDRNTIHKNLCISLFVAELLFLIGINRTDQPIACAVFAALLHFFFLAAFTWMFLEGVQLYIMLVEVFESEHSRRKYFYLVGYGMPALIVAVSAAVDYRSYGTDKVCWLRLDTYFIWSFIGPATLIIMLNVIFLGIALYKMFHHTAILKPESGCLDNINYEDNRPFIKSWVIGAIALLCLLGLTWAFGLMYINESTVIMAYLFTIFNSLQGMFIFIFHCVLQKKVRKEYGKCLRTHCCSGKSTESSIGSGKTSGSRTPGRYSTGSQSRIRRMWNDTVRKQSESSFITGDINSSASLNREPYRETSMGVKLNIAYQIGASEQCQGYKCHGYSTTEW

[2] = biological target: T2, Latrophilin-3 ADHD-related variant R465S (Lphn3^R465S) (human)
T2 chain: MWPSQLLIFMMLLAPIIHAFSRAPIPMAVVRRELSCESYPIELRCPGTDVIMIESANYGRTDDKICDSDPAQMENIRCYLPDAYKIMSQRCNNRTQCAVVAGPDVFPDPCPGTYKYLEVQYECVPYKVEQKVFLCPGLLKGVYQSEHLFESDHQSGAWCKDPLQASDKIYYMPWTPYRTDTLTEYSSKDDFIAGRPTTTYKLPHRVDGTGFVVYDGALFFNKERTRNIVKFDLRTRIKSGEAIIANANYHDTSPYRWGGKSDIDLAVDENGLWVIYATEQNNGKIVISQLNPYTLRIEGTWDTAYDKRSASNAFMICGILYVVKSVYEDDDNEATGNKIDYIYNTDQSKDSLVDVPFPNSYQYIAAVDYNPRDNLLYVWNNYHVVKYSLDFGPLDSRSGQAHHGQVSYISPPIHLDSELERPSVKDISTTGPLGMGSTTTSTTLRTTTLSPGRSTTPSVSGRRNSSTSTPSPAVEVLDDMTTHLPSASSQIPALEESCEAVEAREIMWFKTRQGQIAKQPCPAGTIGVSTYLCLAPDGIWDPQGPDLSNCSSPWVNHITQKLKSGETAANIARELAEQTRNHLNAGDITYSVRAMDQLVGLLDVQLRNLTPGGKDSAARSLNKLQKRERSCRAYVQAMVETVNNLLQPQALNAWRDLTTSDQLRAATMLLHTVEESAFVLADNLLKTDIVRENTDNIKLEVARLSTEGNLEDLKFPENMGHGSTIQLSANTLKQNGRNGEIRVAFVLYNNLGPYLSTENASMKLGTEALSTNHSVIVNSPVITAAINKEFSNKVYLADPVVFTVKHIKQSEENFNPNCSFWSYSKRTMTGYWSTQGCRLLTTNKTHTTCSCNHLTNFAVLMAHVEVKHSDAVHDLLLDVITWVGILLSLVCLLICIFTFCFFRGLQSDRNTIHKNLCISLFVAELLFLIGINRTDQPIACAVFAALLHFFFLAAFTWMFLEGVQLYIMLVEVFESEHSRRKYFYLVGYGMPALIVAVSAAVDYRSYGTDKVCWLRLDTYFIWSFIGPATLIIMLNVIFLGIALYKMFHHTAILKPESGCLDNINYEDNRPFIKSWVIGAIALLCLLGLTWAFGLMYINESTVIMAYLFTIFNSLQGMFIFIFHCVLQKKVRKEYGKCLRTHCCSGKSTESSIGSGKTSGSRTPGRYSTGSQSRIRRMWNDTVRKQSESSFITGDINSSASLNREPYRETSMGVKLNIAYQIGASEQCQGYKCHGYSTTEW

B1: soluble FLRT3 extracellular domain fused to the constant fraction of human IgG (FLRT3^ECD-Fc) (Fc fusion)
chain: KSCPSVCRCDAGFIYCNDRFLTSIPTGIPEDATTLYLQNNQINNAGIPSDLKNLLKVERIYLYHNSLDEFPTNLPKYVKELHLQENNIRTITYDSLSKIPYLEELHLDDNSVSAVSIEEGAFRDSNYLRLLFLSRNHLSTIPWGLPRTIEELRLDDNRISTISSPSLQGLTSLKRLVLDGNLLNNHGLGDKVFFNLVNLTELSLVRNSLTAAPVNLPGTNLRKLYLQDNHINRVPPNAFSYLRQLYRLDMSNNNLSNLPQGIFDDLDNITQLILRNNPWYCGCKMKWVRDWLQSLPVKVNVRGLMCQAPEKVRGMAIKDLNAELFDCKDSGIVSTIQITTAIPNTVYPAQGQWPAPVTKQPDIKNPKLTKDHQTTGSPSRKTITITVKSVTSDTIHISWKLALPMTALRLSWLKLGHSPAFGSITETIVTGERSEYLVTALEPDSPYKVCMVPMETSNLYLFDETPVCIETETAPLRMYNPTTTLNREQEKEPYKNPNLP
modifications: HA/Flag epitopes left out; isoform assumed; signal peptide removed and GPS autoproteolysis expected
Kd [1]: 1.22 nM | Kd [2]: 1.02 nM

Reference: publication PMC9135631 (2022)
